Assay results published in patent US6399570B1, “Antimicrobial/endotoxin neutralizing polypeptide” (priority 1999, dated 2002).

What was measured:
E. coli 0111 = assay: Time course of E. coli growth in the presence of LF polypeptides; format: cell-based; conditions: 50 μM, seven hour time course, OD 600 nm
Procedure: To investigate whether regions of the molecule involved in GAG binding activity of the 6 kDa LF polypeptide (generated from pepsin digestion) are also involved in the antimicrobial activity of the 6 kDa polypeptide of the present invention, polypeptides of various lengths corresponding to the N-terminal amino acid sequence of LF were tested for the ability to inhibit the growth of E. coli 0111. Overnight cultures were grown over a seven hour time course in the presence of 50 μM of either LF, a 33-mer corresponding to amino acids 1-33 of LF, a 26-mer corresponding to […] of LF, a 27-mer corresponding to amino acids 1-27 of LF. […] This is consistent with LF and the 33-mer inhibiting bacterial growth via different mechanisms. […] The failure of the 26-mer and the 27-mer to inhibit culture growth emphasizes the importance of retaining both clusters of basic residues, at the termini of the 33-mer, for the antimicrobial functionality of polypeptides derived from the N-terminal LF sequence.
Time course of E. coli growth in the presence of LF polypeptides. E. coli cells, clinical isolate strain 0111, were obtained from ATCC. […] Culture growth was monitored spectrophotometrically by measuring optical density at 600 nm at each indicated time point.

[1] = system: lipid A from E. coli 0113; assay: LAL assay, neutralization of lipid A endotoxin activity (FIG. 6); format: biochemical; conditions: lipid A 30 ng/ml
Procedure: The lipid A region of the LPS molecule is primarily responsible for the inflammatory and toxic effects of LPS. When LPS is released from the microbe, the lipid A portion may become more accessible. The following assays were performed to determine the potential of various amino-terminal LF polypeptides to neutralize the endotoxic activity of the lipid A portion of LPS. LF, the 6 kDa fragment of LF, LF-33, LF-27, and polymyxin B were each tested for the ability to neutralize the endotoxin activity of lipid A from E. coli 0113 (30 ng/ml), using a LAL assay. […] The endotoxin activity of the smaller fragments of LF indicate that endotoxin-neutralizing activity of these small polypeptides is masked when in the context of the intact LF molecule.

B1: LF: 80 kDa iron-binding glycoprotein, purified from human colostrum (protein, UniProt P02788 20-710, looked up)
Lactotransferrin: GRRRSVQWCAVSQPEATKCFQWQRNMRKVRGPPVSCIKRDSPIQCIQAIAENRADAVTLDGGFIYEAGLAPYKLRPVAAEVYGTERQPRTHYYAVAVVKKGGSFQLNELQGLKSCHTGLRRTAGWNVPIGTLRPFLNWTGPPEPIEAAVARFFSASCVPGADKGQFPNLCRLCAGTGENKCAFSSQEPYFSYSGAFKCLRDGAGDVAFIRESTVFEDLSDEAERDEYELLCPDNTRKPVDKFKDCHLARVPSHAVVARSVNGKEDAIWNLLRQAQEKFGKDKSPKFQLFGSPSGQKDLLFKDSAIGFSRVPPRIDSGLYLGSGYFTAIQNLRKSEEEVAARRARVVWCAVGEQELRKCNQWSGLSEGSVTCSSASTTEDCIALVLKGEADAMSLDGGYVYTAGKCGLVPVLAENYKSQQSSDPDPNCVDRPVEGYLAVAVVRRSDTSLTWNSVKGKKSCHTAVDRTAGWNIPMGLLFNQTGSCKFDEYFSQSCAPGSDPRSNLCALCIGDEQGENKCVPNSNERYYGYTGAFRCLAENAGDVAFVKDVTVLQNTDGNNNEAWAKDLKLADFALLCLDGKRKPVTEARSCHLAMAPNHAVVSRMDKVERLKQVLLHQQAKFGRNGSDCPDKFCLFQSETKNLLFNDNTECLARLHGKTTYEKYLGPQYVAGITNLKKCSTSPLLEACEFLRK
- growth of E. coli 0111 cultures (E. coli 0111): transient growth suppressing effect
- lipid A neutralizing activity [1]: no appreciable lipid A neutralizing activity
